Experiment: yeast display, Sf9 membrane polyspecificity reagent, FACS + sequencing; frameworks hold sequencing errors
In short: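 Sorting gates, low and high (top ~1%), were placed on anti-HA fluorescence to track expression and on streptavidin fluorescence to track reagent binding. A clone's polyreactivity label is taken from the gate it came out of. The reagent was 10% biotinylated, detergent-solubilized Sf9 membrane, applied for 1 hour at 4 °C to galactose-induced yeast display cells.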

QVQLVESGGGLVQAGGSLRLICAASGSIFYQNAMVGYRQAPGKERELVAAIRSRGGSTYYADSVKGRFTISRDNATNTVYLQMNSLKPEDTAVYYCNKLSRTTSYTYNYWGQGTQVTVSS
polyreactivity (PSR sort gate): low polyreactivity

QVQLVESGGGLVQAGGSLRLICAASGSIFYYYAMVWYRQAPGKERELVAAISSGGSTNYADSVKGRFTISRDNAKNTVYLQMNSLKPEDTAVYYCAADYRAQYVVWYTYDYWGQGTQVTVSS
polyreactivity (PSR sort gate): low polyreactivity

QVQLVESGGGLVQAGGSLRLICAASGSILGTYAMGWYRQAPGKERELVAAITLSTDGTYYADSVKGRFTISRDNAKNTVYLQMNCLKPEDTAVYYFAAPWNWRWVTQWGYYVRADYYWGQGSQVTVSS
polyreactivity (PSR sort gate): low polyreactivity

QVQLVESGGGLVQAGGSLRLICAASGSILNWYAMGWYRQAPGKERELVAAINRGTGTYYADSVKGRFTISRDNAKNTVYLQMISLKTEDTAVYYCAAEWYVYDFEFYYWGQGTQVTVSS
polyreactivity (PSR sort gate): high polyreactivity

QVQLVESGGGLVQAGGSLRLICAASGSILQRNAMGWYRPAPGKERELVAAISWSGDNTYYADSVKGRFTISRDNAKNTVYLQMNSVKPEDTAVYYCATDADIYFQEYDYWGQGTQVTVSS
polyreactivity (PSR sort gate): low polyreactivity

QVQLVESGGGLVQAGGSLRLICAASGSILVSYARGWYRQAPGKERELVAAITSGGRTKYADSVKGRFTISRDNAKNTVYLQMNSLKPEDNAVYYCAADDPLSYQFDYWGQGTQVTVSS
polyreactivity (PSR sort gate): high polyreactivity

QVQLVESGGGLVQAGGSLRLICAASGSISVVNMGWYRQSPGKERELVASITSSGSTTYADSVKGRFTISRDNAKNTVYLQMNSVKPEDTAVYYCASDVGTDYTYQHPAGAAYDYWGQGTQVTVSS
polyreactivity (PSR sort gate): low polyreactivity

QVQLVESGGGLVQAGGSLRLICAASGSNFWSYAMGWYRQAPGKERELVADITWSGGNTYADSVKGRFTISRDNAMNTVYLQMNSLKPEDTAVYYCAADPAHGTKWYVYPSHDDYWGQGTQVTVSS
polyreactivity (PSR sort gate): low polyreactivity

QVQLVESGGGLVQAGGSLRLICAASGSNFYVYAMGWYRQAPGKERELVAAISDSGSRTYYADSVKGRFTISRDNAKNTVYLKKNSLKPEDTAVYYCAALTRRTGYTYKEYYWGQGTQVTVSS
polyreactivity (PSR sort gate): high polyreactivity

QVQLVESGGGLVQAGGSLRLICAASGSTFAFYAMGWYRQAPGKERELVAAISRSGGRTYYADSVKGRFTISRDNAKNTVYLQMNSLKPEDTAVYYCAAPSRITTGPHREYDYWGQGTQVTVSS
polyreactivity (PSR sort gate): high polyreactivity

QVQLVESGGGLVQAGGSLRLICAASGSTFAIYAMGWYRQAPGKERELVAAISWRTGSTYYADSVKGRFTISRDNAKNTVYLQMNSLKPEDTAVYYCAVRGRLQYSGGEGNYWGQGTQVTVSS
polyreactivity (PSR sort gate): high polyreactivity

QVQLVESGGGLVQAGGSLRLICAASGSTFDGNVMGWYRQAPGKERELVADIDSGGSTNYADSVKGRFTISRDNAKNTVYLQMNSLKPEDTAFYYCNAEWDDSFIRWFRYRGNYWGQGTQVTVSS
polyreactivity (PSR sort gate): low polyreactivity

QVQLVESGGGLVQAGGSLRLICAASGSTFDVNAMGWYRQAPGKEREFVAANSWSGGSTYYADSVKGRFTISRDIAKNTVYLQMNSLKPEDTAVYYCNADYVFKDGLGFRGLAGGDYWGQGTQVTVSS
polyreactivity (PSR sort gate): low polyreactivity

QVQLVESGGGLVQAGGSLRLICAASGSTFDYYAKGWYRQATGKERELVASITWGDGSTYYADSVKGRFTISRDNAKNTVYLQRNSLKPEDTAVYYCNDDDTQLESYAPGHGYDYWGQGTQVTVSS
polyreactivity (PSR sort gate): low polyreactivity

QVQLVESGGGLVQAGGSLRLICAASGSTFDYYAMGWYRQAPGKERELVAAISRRGGNTYYADSVKGRFTISRDNAKNTVYLQMNSLKQEDTAVYYCAAQTYKWYDWGHGTQVTVSS
polyreactivity (PSR sort gate): high polyreactivity

QVQLVESGGGLVQAGGSLRLICAASGSTFFPYAMGWYRQAPGKERELVAGISSDGGTSYADSVKGRFTISRDNAKNTVYLQMNSLKPEDTAVYYCAAYYTHQPAHHYWGQGTQVTVSS
polyreactivity (PSR sort gate): low polyreactivity

QVQLVESGGGLVQAGGSLRLICAASGSTFIPNAMGWYRQSPGKERELVAAISTGGSTNYADSVKGRFTISRDNAKNTVYLQINCLKPEDTAVYYCNARRGYYNPGRRFYYWGQGTQVTVSS
polyreactivity (PSR sort gate): low polyreactivity

QVQLVESGGGLVQAGGSLRLICAASGSTFNSYTMGWYRQAPGKERELVAAISSGGITYYADSEKGRFTISRDNAKNTVYLLMNSLKPEDTAVYYCADRRYRYGYNYWGQGTQVTVSS
polyreactivity (PSR sort gate): high polyreactivity

QVQLVESGGGLVQAGGSLRLICAASGSTFNTYAMGRYRQAPGKERELVAAITWSGGRTYYADSVKGRFTISRDNAKNTVYLQMNSLKPEDTAVYYCAKGKGPTEYDYWGQGTQVTVSS
polyreactivity (PSR sort gate): high polyreactivity

QVQLVESGGGLVQAGGSLRLICAASGSTFSINAMGRYRQAPGKERELVAAITTSVDSTYYADSVKGRFTISRDNAKNTVYLQMNSLIPEDTAVYYCAVAFVQFNQYDYWGQGTQVTVSS
polyreactivity (PSR sort gate): low polyreactivity

QVQLVESGGGLVQAGGSLRLICAASGSTFSSNAMGWYRQAPGKERELVAAISRSGVTTYYADSVKGRFTISRDNAKNTVYLQKHSLKPEDTAVYYCAAQPYSRRYGRYRGFQYKYEYWGQGTQVTVSS
polyreactivity (PSR sort gate): low polyreactivity

QVQLVESGGGLVQAGGSLRLICAASGSTFTLYAMGWYRQAPGKERELVAAISGIGDSTYYADSVKGRFTISRDNAKNTVYLQMNSLKPEDTAVYYCAADGEYRYDWEYESWGQGTQVTVSS
polyreactivity (PSR sort gate): low polyreactivity

QVQLVESGGGLVQAGGSLRLICAASGSTFVPNAMGGYRQAPGKERELVAAITASTGRTYYADSVKGRFTISRDNAKNTVYLQMNSLKPEDTAVYYCAAYFVYWSDLEHYYPVEYGYWGQGTQVTVSS
polyreactivity (PSR sort gate): high polyreactivity

QVQLVESGGGLVQAGGSLRLICAASGSTFVPNAMGWYRQAPGKERELVAAITLSGVSTYYADSVKGRFTISRDNAKNTVYLQMNSLKPEETAVYYCAKDRPGWFHKYDYWGQGTQVTVSS
polyreactivity (PSR sort gate): low polyreactivity

QVQLVESGGGLVQAGGSLRLICAASGSTFWRYAMGWYRQAPGKERELVAAITGNGGRTYYADSVKGRFTISRDNAKNTVYLQMNSLKPEDTAVYYCAARYRGGVSVGYWGQGTQVTVSS
polyreactivity (PSR sort gate): high polyreactivity

QVQLVESGGGLVQAGGSLRLICAASGSTFWYYAMGWYRTAPGKDRELVAAITYGGGSTYYADSVKGRFTISRDNAKNTVYLQMNSLKPEDTAVYYCAAQSYDYWYDYDYWGQGTQVTVSS
polyreactivity (PSR sort gate): high polyreactivity

QVQLVESGGGLVQAGGSLRLICAASGSTFWYYSMGWYRQAPGKERELVAAITRAGSTNYADSVKGRFTISRDNAKNTVYLQMNSLKPEDTAVYYCAADQYHYWYYLGGYDYWGQGTQVTVSS
polyreactivity (PSR sort gate): high polyreactivity

QVQLVESGGGLVQAGGSLRLICAASGSTFYPYDMGWYRQSPGKEWELVATISSGVSTNYADSVKGRFTISRDNAKNTVYLQMNSLKPEDTAVYYCAVDYFIGDDDYWGQGTLVTVSS
polyreactivity (PSR sort gate): low polyreactivity

QVQLVESGGGLVQAGGSLRLICAASGSTFYRNVMGWYRQAPGKERELVAAISSGGSTYYADSVKGRFTISRDNAKNTVYLQMNSLKPEDTAVYYCAARKRYSYDYWGQGTQVTVSS
polyreactivity (PSR sort gate): low polyreactivity

QVQLVESGGGLVQAGGSLRLICAASGSTITLYAMGWYRQAPGKERELVAAISGIGDSTYYADSVKGRFTISRDNAKNTVYLQMNSLKPEDTAVYYCAADGEYRYDWEYESWGQGTQLTVSS
polyreactivity (PSR sort gate): low polyreactivity

QVQLVESGGGLVQAGGSLRLICAASGSTLFTYAMVWYRQAPGKERELVAAITSSGSTYYADSVKGRFTISRDNAKNTVYLQMNSLKQEDTAVYYCAVPGYRYTNYYYWGQGTQVTVSS
polyreactivity (PSR sort gate): low polyreactivity

QVQLVESGGGLVQAGGSLRLICAASGSTLYTYAMGWYRQAPGKERELVATISWSGSSTYYADSVKGRFTISRDNAKNTVYLQMNSLKPEDTAVYYCAAPYHYWYRLDYWGQGTQVTVSS
polyreactivity (PSR sort gate): high polyreactivity

QVQLVESGGGLVQAGGSLRLICAASGTFYYYAMGWYRQAHGNERELVAAISTSDTSTYYADSVKGRFTISRDNAKNTVYLQMNSLKPEDTAVYYCAADTYHNFDYWGQGTQVSVSS
polyreactivity (PSR sort gate): low polyreactivity

QVQLVESGGGLVQAGGSLRLICAASGTTFPRYAMGWYRKAPGKERELVAAITRSGANTHYADSVKGRFTIPRDNAKNTVYLQMTSLKPEDTAVYYCAARIYWGYGTRYYYWGQGTQVTVSS
polyreactivity (PSR sort gate): high polyreactivity

QVQLVESGGGLVQAGGSLRLICAASGYIFRYYVMGWYRQAPGKERELVAAITGIDGSTYYADSVKGRFTISRDNAKNTVYLQMNSLKPEDTAVYYCAAVIGDSSYTFYYDMDYWGQGTQVTVSS
polyreactivity (PSR sort gate): low polyreactivity

QVQLVESGGGLVQAGGSLRLICAASGYIFVRNAMGWYRQAPGKERELVAAISGSGGSTYYADSVKGRFTISRDNAKNTVYLQMNSLKPEDTAVYYSAADYATVTWRGIAYDYWGQGTQVTVSS
polyreactivity (PSR sort gate): low polyreactivity

QVQLVESGGGLVQAGGSLRLICAASGYTFDYNAMGWYRQAPGKEREFVAAIDWSGGNTYYADSVKGRFTISRDNAKNTVYLQMNSLKPEDTAVYYCNTVTEAVTRRYDYWGQGTQVTVSS
polyreactivity (PSR sort gate): low polyreactivity

QVQLVESGGGLVQAGGSLRLICAASGYTFRGNAMGRYRPAPGKERELVAAISGSGTRTYYADSVKGRFTISRDNAKNTVYLQMNSLKPEDTAVYYCNAKSLYHYHSADFDYWGQGTQVTVSS
polyreactivity (PSR sort gate): high polyreactivity

QVQLVESGGGLVQAGGSLRLICAASGYTFSDYAMGLYRQAPGKERELVAVISQSGGSTYYADSVKGRFTISRDNAKNTVYLQMNSLKPEDTAVYDCNVYPSRRRAVGESERYYWGQGTQVTVSS
polyreactivity (PSR sort gate): high polyreactivity

QVQLVESGGGLVQAGGSLRLICAASGYTLGPYAMGWYRQAPGKERELVAAITSGGSTYYADSVKGRFPISRDNAKHTVYLQMNSLKPEDSAVYYCNKDKGWLAHSRIWLWYDYWGQGTQVTVSS
polyreactivity (PSR sort gate): low polyreactivity

QVQLVESGGGLVQAGGSLRLICAASRGIFGQYVMGWYRQAPGKERELVAPISSGGNTYADSVKGRFTISRDNAKNTVYLHMNSLKPEDTAVYYCAAPLTGIVEYDYWGQGTQVTVSS
polyreactivity (PSR sort gate): low polyreactivity

QVQLVESGGGLVQAGGSLRLICADYGRTFKWYAMGWYRQAPGKERELVAVITGLGGSTYYADSVKGRFTISRDNAKNTVYLQMKSLKPEDTAVYYCAARGYSHVASRLYYYWGQGNQVTVSS
polyreactivity (PSR sort gate): high polyreactivity

QVQLVESGGGLVQAGGSLRLICAGSGSNFSYYAMGWYRQAPGKERELVAAITWSGGTTSYADSVKGRFTISRDNAKNTVYLQMNSLKPEDSAVNYFARSIYVVSAQYDYWGQGTQVTVSS
polyreactivity (PSR sort gate): low polyreactivity

From the nanobody polyreactivity screen of Harvey et al. (2022)
